Data as given in patent publication EP4631972A1, “SITE-SPECIFIC COUPLED PEGYLATED INTERLEUKIN-2 MUTANT WITH RECEPTOR AFFINITY PREFERENCE AND USE THEREOF” (priority 2022, dated 2024).
Numbered stars: 1 amine (or outer) side, 2 acyl side, 3 side chain; on linkers, the order of the positions; unused ones are H or OH. Square brackets hold non-standard residues; d marks the D form. Prk = N-ε-propargyloxycarbonyl-L-lysine, C#CCOC(=O)NCCCC[C@H](N[*:1])C(=O)[*:2]; PEG60k = one 60 kD PEG attached to the residue; Phe(4-Ac) = CC(=O)c1ccc(C[C@H](N)C(=O)O)cc1

T1: IL-2βγ dual receptor (Homo sapiens, UniProt P14784+P31785)
T1 construct: Uniprot P14784 1Met-551Val was constructed into plasmid pcDNA3.1(+); Uniprot P31785 1Met-551Thr was constructed into plasmid pcDNA3.1/zeo; expressed in transfected cells; host or cells: 293EC18 cells, transient co-transfection with pCMV/JAK3 and PGL4.52/STAT5RE
T1 sequence (P14784 27-551): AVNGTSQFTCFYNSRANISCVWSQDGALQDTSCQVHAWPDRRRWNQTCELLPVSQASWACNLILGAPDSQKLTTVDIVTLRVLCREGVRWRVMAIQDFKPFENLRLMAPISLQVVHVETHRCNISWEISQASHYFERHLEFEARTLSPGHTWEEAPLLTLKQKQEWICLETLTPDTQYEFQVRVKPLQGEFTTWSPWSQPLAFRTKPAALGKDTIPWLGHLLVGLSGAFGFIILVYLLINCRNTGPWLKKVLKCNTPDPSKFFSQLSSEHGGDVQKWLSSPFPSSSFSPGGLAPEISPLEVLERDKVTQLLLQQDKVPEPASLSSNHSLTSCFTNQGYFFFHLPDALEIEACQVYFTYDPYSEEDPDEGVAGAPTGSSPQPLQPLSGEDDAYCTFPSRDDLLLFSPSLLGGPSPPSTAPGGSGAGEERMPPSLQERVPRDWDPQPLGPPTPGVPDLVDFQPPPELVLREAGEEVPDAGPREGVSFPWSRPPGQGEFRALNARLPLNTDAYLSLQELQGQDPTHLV
T1 sequence (P31785 23-369): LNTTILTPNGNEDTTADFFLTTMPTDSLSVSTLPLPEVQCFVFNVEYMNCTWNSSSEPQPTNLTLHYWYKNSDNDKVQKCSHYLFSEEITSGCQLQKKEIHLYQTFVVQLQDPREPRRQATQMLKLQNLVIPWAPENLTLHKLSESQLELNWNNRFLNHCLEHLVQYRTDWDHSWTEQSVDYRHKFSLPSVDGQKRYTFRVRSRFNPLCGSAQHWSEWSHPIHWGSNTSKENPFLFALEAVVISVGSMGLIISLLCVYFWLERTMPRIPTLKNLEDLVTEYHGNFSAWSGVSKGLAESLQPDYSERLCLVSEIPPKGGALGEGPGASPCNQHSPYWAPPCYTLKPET

T2: IL-2Rαβγ triple receptor (UniProt P01589 22-272; P14784 27-551; P31785 23-369)
T2 sequence (looked up) 1: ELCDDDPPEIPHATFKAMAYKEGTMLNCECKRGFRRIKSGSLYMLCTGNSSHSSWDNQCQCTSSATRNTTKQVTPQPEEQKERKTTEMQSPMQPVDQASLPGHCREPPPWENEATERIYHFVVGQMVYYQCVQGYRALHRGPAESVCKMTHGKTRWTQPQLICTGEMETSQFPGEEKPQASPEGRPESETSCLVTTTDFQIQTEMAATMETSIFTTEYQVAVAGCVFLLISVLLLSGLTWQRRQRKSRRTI
T2 sequence (looked up) 2: T1 sequence (P14784 27-551)
T2 sequence (looked up) 3: T1 sequence (P31785 23-369)

B1: 80k-1PEG-IL2-N88R-S75C: IL-2 mutant N88R, S75C with one 80k PEG conjugated to cysteine 75 (conjugate)
chain: APTSSSTKKTQLQLEHLLLDLQMILNGINNYKNPKLTRMLTFKFYMPKKATELKHLQCLEEELKPLEEVLNLAQC(PEG 80 kDa)KNFHLRPRDLISRINVIVLELKGSETTFMCEYADETATIVEFLNRWITFSQSIISTLT
B2: 20k-1PEG-IL2-N88R-N33pAcF (ligand)
chain: APTSSSTKKTQLQLEHLLLDLQMILNGINNYK[Phe(4-Ac)](PEG‑hydroxylamine 20 kDa)PKLTRMLTFKFYMPKKATELKHLQCLEEELKPLEEVLNLAQSKNFHLRPRDLISRINVIVLELKGSETTFMCEYADETATIVEFLNRWITFSQSIISTLT
modifications: not fully specified
B3: 40k-1PEG-IL2-N88R-N33pAcF (ligand)
chain: APTSSSTKKTQLQLEHLLLDLQMILNGINNYK[Phe(4-Ac)](PEG‑hydroxylamine 40 kDa)PKLTRMLTFKFYMPKKATELKHLQCLEEELKPLEEVLNLAQSKNFHLRPRDLISRINVIVLELKGSETTFMCEYADETATIVEFLNRWITFSQSIISTLT
modifications: not fully specified
B4: 60k-1PEG-IL2-N88R-N33pAcF (ligand)
chain: APTSSSTKKTQLQLEHLLLDLQMILNGINNYK[Phe(4-Ac)](PEG60k)PKLTRMLTFKFYMPKKATELKHLQCLEEELKPLEEVLNLAQSKNFHLRPRDLISRINVIVLELKGSETTFMCEYADETATIVEFLNRWITFSQSIISTLT
B5: 20k-1PEG-IL2-N88R-N77pAcF (ligand)
chain: APTSSSTKKTQLQLEHLLLDLQMILNGINNYKNPKLTRMLTFKFYMPKKATELKHLQCLEEELKPLEEVLNLAQSK[Phe(4-Ac)](PEG‑hydroxylamine 20 kDa)FHLRPRDLISRINVIVLELKGSETTFMCEYADETATIVEFLNRWITFSQSIISTLT
modifications: not fully specified
B6: 40k-1PEG-IL2-N88R-N77pAcF (ligand)
chain: APTSSSTKKTQLQLEHLLLDLQMILNGINNYKNPKLTRMLTFKFYMPKKATELKHLQCLEEELKPLEEVLNLAQSK[Phe(4-Ac)](PEG‑hydroxylamine 40 kDa)FHLRPRDLISRINVIVLELKGSETTFMCEYADETATIVEFLNRWITFSQSIISTLT
modifications: not fully specified
B7: 60k-1PEG-IL2-N88R-N77pAcF (ligand)
chain: APTSSSTKKTQLQLEHLLLDLQMILNGINNYKNPKLTRMLTFKFYMPKKATELKHLQCLEEELKPLEEVLNLAQSK[Phe(4-Ac)](PEG60k)FHLRPRDLISRINVIVLELKGSETTFMCEYADETATIVEFLNRWITFSQSIISTLT
B8: 20k-1PEG-IL2-N88R-N33Prk (ligand)
chain: APTSSSTKKTQLQLEHLLLDLQMILNGINNYK[Prk](PEG‑azide 20 kDa)PKLTRMLTFKFYMPKKATELKHLQCLEEELKPLEEVLNLAQSKNFHLRPRDLISRINVIVLELKGSETTFMCEYADETATIVEFLNRWITFSQSIISTLT
B9: 40k-1PEG-IL2-N88R-N33Prk (ligand)
chain: APTSSSTKKTQLQLEHLLLDLQMILNGINNYK[Prk](PEG‑azide 40 kDa)PKLTRMLTFKFYMPKKATELKHLQCLEEELKPLEEVLNLAQSKNFHLRPRDLISRINVIVLELKGSETTFMCEYADETATIVEFLNRWITFSQSIISTLT
B10: 60k-1PEG-IL2-N88R-N33Prk (ligand)
chain: APTSSSTKKTQLQLEHLLLDLQMILNGINNYK[Prk](PEG 60 kDa)PKLTRMLTFKFYMPKKATELKHLQCLEEELKPLEEVLNLAQSKNFHLRPRDLISRINVIVLELKGSETTFMCEYADETATIVEFLNRWITFSQSIISTLT
B11: 20k-1PEG-IL2-N88R-N77Prk (ligand)
chain: APTSSSTKKTQLQLEHLLLDLQMILNGINNYKNPKLTRMLTFKFYMPKKATELKHLQCLEEELKPLEEVLNLAQSK[Prk](PEG‑azide 20 kDa)FHLRPRDLISRINVIVLELKGSETTFMCEYADETATIVEFLNRWITFSQSIISTLT
B12: 40k-1PEG-IL2-N88R-N77Prk (ligand)
chain: APTSSSTKKTQLQLEHLLLDLQMILNGINNYKNPKLTRMLTFKFYMPKKATELKHLQCLEEELKPLEEVLNLAQSK[Prk](PEG‑azide 40 kDa)FHLRPRDLISRINVIVLELKGSETTFMCEYADETATIVEFLNRWITFSQSIISTLT
B13: 60k-1PEG-IL2-N88R-N77Prk (ligand)
chain: APTSSSTKKTQLQLEHLLLDLQMILNGINNYKNPKLTRMLTFKFYMPKKATELKHLQCLEEELKPLEEVLNLAQSK[Prk](PEG 60 kDa)FHLRPRDLISRINVIVLELKGSETTFMCEYADETATIVEFLNRWITFSQSIISTLT

molecular target: T1, IL-2βγ dual receptor; assay: STAT5 reporter gene assay, activation of IL-2βγ dual receptor in 293EC18/βγ/JAK3/STAT5 cells; format: cell-based; conditions: Figure 1, concentration of 65.2 nM
Protocol: Since the binding of IL-2 to the β and γ subunits of its receptor induces STAT5 phosphorylation, which subsequently leads to dimerization and translocation into the nucleus to promote target gene transcription, this example evaluates the ability of the mutant IL-2 polypeptides to induce signaling through the IL-2 receptor by measuring STAT5 phosphorylation.
Adherent 293EC18 cells were cultured to about 90% confluence using conventional methods. After trypsin digestion, the cells were resuspended in cell culture medium to 4×10^5 cells/ml and 50 µl/well were added to two 96-well cell culture plates. After incubation at 37°C for 48 h, the supernatant was aspirated and fresh culture medium was added. According to the manufacturer's method, four plasmids, pcDNA3.1(+)/CD122 (constructed by Nanjing Novoacine Biotechnology Co., Ltd, Uniprot P14784 1Met-551Val was constructed into plasmid pcDNA3.1(+)), pcDNA3.1/puro/CD132 (constructed by Nanjing Novoacine Biotechnology Co., Ltd, Uniprot P31785 1Met-551Thr was constructed into plasmid pcDNA3.1/zeo), pCMV/JAK3 (Sino Biological), and PGL4.52/STAT5RE (Promega) were transiently transfected into 293EC18 cells using a cationic transfection reagent (ExFect Transfection Reagent, Vazyme). The obtained cells were named 293EC18/βγ/JAK3/STAT5 cells. Alternatively, five plasmids, pcDNA3.1/zeo/CD25 (constructed by Nanjing Novoacine Biotechnology Co., Ltd, Uniprot P01589 1Met-551Ile constructed into plasmid pcDNA3.1/zeo), pcDNA3.1(+)/CD122 (constructed by Nanjing Novoacine Biotechnology Co., Ltd, Uniprot P14784 1Met-551Val constructed into plasmid pcDNA3.1(+)), pcDNA3.1/puro/CD132 (constructed by Nanjing Novoacine Biotechnology Co., Ltd, UniprotP31785 1Met-551Thr constructed into plasmid pcDNA3.1/zeo), pCMV/JAK3 (Sino Biological), and PGL4.52/STAT5RE (Promega) were transiently transferred into 293EC18 cells, and the obtained cells were named 293EC18/αβγ/JAK3/STAT5 cells. The transfected cells were incubated at 37°C and 5% CO2 for another 6 h.
Each IL2 mutant was diluted 4-fold in a gradient manner using PBS buffer, with a total of 11 dilutions and a starting concentration of 65.2 nM. In the above cell culture plates, 50 µl/well of each of the serially diluted IL2 mutant samples was added in duplicate. Then, the cell culture plate was placed in an incubator at 37°C and 5% CO2 for overnight culture. The cell culture plates were kept at room temperature for 20 ± 5 minutes to equilibrate the plates to room temperature. Bio-Lite Luciferase Assay System reagents that have been mixed and equilibrated to room temperature were added to the cell culture plates to be tested at 100 µl/well, placed on a microplate shaker at 450 rpm to mix for 2 minutes, then allowed to stand at room temperature for 3 minutes, and the chemiluminescence value was detected with an enzyme plate reader.
The logarithm of the final concentration of each IL-2 mutant sample was used as the X-axis, and the chemiluminescence detection results were used as the Y-axis for plotting. Data were analyzed using the four-parameter logistic regression model in GraphPad Prism 9. Table 2 EC50 values for the activation of the IL-2αβγ triple receptor by PEG-IL-2 mutants as determined by a reporter gene assay.
According to the method of Example 3, each polyethylene glycol-modified mutant obtained in this example was assessed for the binding preference to the IL2 receptors by a reporter assay. Table 4 EC50 values for the activation of the IL-2αβγ triple receptor by PEG-IL-2 mutants as determined by a reporter gene assay.
Referring to Example 3, the phosphorylation of STAT5 was used to evaluate the ability of the PEG-modified IL-2 mutants having a non-natural amino acid mutation prepared in Example 14 to induce signal transduction via the IL-2 receptor. […]

Molecule | activation effect on the IL-2Rβγ dual receptor compared with control IL-2 N88R
B1 | lower activation effects

same assay, conditions: Figure 2, all concentrations

Molecule | activation effect on / affinity to IL-2Rβγ dual receptor compared with control IL-2 N88R
B1 | further reduced the affinity to IL-2Rβγ

molecular target: T2, IL-2Rαβγ triple receptor; assay: cell-based or functional assay; conditions: not given

Molecule | Activation of IL-2αβγ triple receptor EC50 (STAT5 luciferase reporter gene assay)
B2 | 319 pM
B3 | 3690 pM
B4 | 9210 pM
B5 | 500 pM
B6 | 1920 pM
B7 | 5120 pM

molecular target: T2, IL-2Rαβγ triple receptor; assay: cell-based or functional assay; conditions: not given; remark: another data set of the same source

Molecule | Activation of IL-2αβγ receptor EC50 (STAT5 luciferase reporter gene assay)
B8 | 323 pM
B9 | 443 pM
B10 | 368 pM
B11 | 361 pM
B12 | 517 pM
B13 | 417 pM
